Results published in patent US20250312468A1, “ANTI-PROTAC ANTIBODIES AND COMPLEXES” (Merck Patent GmbH, priority 2021, published 2025).
One block for each substance: values may come before it.

Tests used:
EGFR [1] = target: EGFR (UniProt P00533); assay: cell-based or functional assay
EGFR [2] = target: EGFR (UniProt P00533); assay: flow cytometry on MDAMB468 cells, Alexa Fluor 488 anti-human IgG Fab as secondary, on ice
CD33 = CD33 (UniProt P20138); assay: flow cytometry on CD33-expressing MV411 cells, Alexa Fluor 488 anti-human IgG Fab as secondary, on ice

remaining nuclear BRD4 (immunofluorescence) in EGFR-expressing MDAMB468 cells at 4 nM (EGFR [1]): 44.2%
Substance: C225-L328C-GNE987 (antibody)
IC50 cell viability, MDAMB468 cells, three independent experiments (EGFR [1]): 0.8 nM

EC50 (read off the curve) (EGFR [2]): 0.6 nM
Substance: EGFR-binding antibody Cetuximab

EC50 (read off the curve) (CD33): 0.3 nM
Substance: CD33-binding antibody Gemtuzumab (IgG4-PG-SPLE)
